Measurements: patent US20180362632A1 (published 2018)
Where a chain is given by its changes, count along the chain named. Like-named read-outs stand apart in the source and are kept apart here.

B1: Hu23F4-18 (antibody, V domains shown)
VH: EVQLVQSGAEVKKPGATVKISCKVSDYTLTSHYLHWVQQAPGKGLEWIGWIFPGDDKTKYNEKFKGRATLTSDTSTDTAYMELSSLRSEDTAVYYCARGTKYLNWNFDVWGQGTTVTVSS
VL: DIQLTQSPSFLSASVGDRVTITCKANQNVGTTLAWYQQKPGKAPKALIYSASYRYSGVPSRFSGSGSGTEFTLTISSLQPEDFATYYCHQYTTYPLTFGGGTKVEIK
B2: Hu23F4-4 (antibody, V domains shown)
VH: B1 VH with D26G, L29F, I48M, A68V, L70I, S72A
VL: B1 VL with A43S, S60D, E70D, Y87F
B3: Hu23F4-5 (antibody, V domains shown)
VH: B1 VH with D26G, L29F, I48M, A68V, L70I
VL: B1 VL with A46L
B4: Hu23F4-26 (antibody, V domains shown)
VH: EVQLVQSGAEVKKPGASVKVSCKASGYTFTSHYLHWVRQAPGQGLEWMGWIFPGDDKTKYNEKFKGRVTMTSDTSISTAYMELSRLRSDDTAVYYCARGTKYLNWNFDVWGQGTTVTVSS
VL: B1 VL with S60D, E70D
B5: Hu23F4-1 (antibody, V domains shown)
VH: B1 VH with D26G, L29F, I48M, A68V, L70I, S72A
VL: B1 VL with A46L
B6: Hu23F4-34 (antibody, V domains shown)
VH: B4 VH with M48I, V68A, M70L
VL: B1 VL with S60D, E70D
B7: Hu23F4-15 (antibody, V domains shown)
VH: B1 VH with D26G, L29F
VL: B1 VL with S60D, E70D
B8: Hu23F4-20 (antibody, V domains shown)
VH: B4 VH with S72R
VL: B1 VL with A46L
B9: Hu23F4-28 (antibody, V domains shown)
VH: B4 VH with M70L
VL: B1 VL with A46L
B10: Hu23F4-6 (antibody, V domains shown)
VH: B1 VH with D26G, L29F, I48M, A68V, L70I
VL: B1 VL
B11: Hu23F4-27 (antibody, V domains shown)
VH: B4 VH
VL: B1 VL with A43S, S60D, E70D, Y87F
B12: Hu23F4-29 (antibody, V domains shown)
VH: B4 VH with M70L
VL: B1 VL
B13: Hu23F4-13 (antibody, V domains shown)
VH: B1 VH with D26G, L29F
VL: B1 VL with A46L
B14: Hu23F4-37 (antibody, V domains shown)
VH: B4 VH with G26D, F29L, M48I, V68A, M70L
VL: B1 VL
B15: Hu23F4-17 (antibody, V domains shown)
VH: B1 VH
VL: B1 VL with A46L
B16: Hu23F4-12 (antibody, V domains shown)
VH: B1 VH with D26G, L29F, I48M
VL: B1 VL with A43S, S60D, E70D, Y87F
B17: Hu23F4-8 (antibody, V domains shown)
VH: B1 VH with D26G, L29F, I48M, A68V, L70I
VL: B1 VL with A43S, S60D, E70D, Y87F
B18: Hu23F4-19 (antibody, V domains shown)
VH: B1 VH
VL: B1 VL with S60D, E70D
B19: Hu23F4-35 (antibody, V domains shown)
VH: B4 VH with M48I, V68A, M70L
VL: B1 VL with A43S, S60D, E70D, Y87F
B20: Hu23F4-7 (antibody, V domains shown)
VH: B1 VH with D26G, L29F, I48M, A68V, L70I
VL: B1 VL with S60D, E70D
B21: Hu23F4-38 (antibody, V domains shown)
VH: B4 VH with G26D, F29L, M48I, V68A, M70L
VL: B1 VL with S60D, E70D
B22: Hu23F4-21 (antibody, V domains shown)
VH: B4 VH with S72R
VL: B1 VL
B23: Hu23F4-11 (antibody, V domains shown)
VH: B1 VH with D26G, L29F, I48M
VL: B1 VL with S60D, E70D
B24: Hu23F4-2 (antibody, V domains shown)
VH: B1 VH with D26G, L29F, I48M, A68V, L70I, S72A
VL: B1 VL
B25: Hu23F4-9 (antibody, V domains shown)
VH: B1 VH with D26G, L29F, I48M
VL: B1 VL with A46L
B26: Hu23F4-16 (antibody, V domains shown)
VH: B1 VH with D26G, L29F
VL: B1 VL with A43S, S60D, E70D, Y87F
B27: Hu23F4-25 (antibody, V domains shown)
VH: B4 VH
VL: B1 VL
B28: Hu23F4-22 (antibody, V domains shown)
VH: B4 VH with S72R
VL: B1 VL with S60D, E70D
B29: Hu23F4-14 (antibody, V domains shown)
VH: B1 VH with D26G, L29F
VL: B1 VL
B30: Hu23F4-3 (antibody, V domains shown)
VH: B1 VH with D26G, L29F, I48M, A68V, L70I, S72A
VL: B1 VL with S60D, E70D
B31: Hu23F4-10 (antibody, V domains shown)
VH: B1 VH with D26G, L29F, I48M
VL: B1 VL

What was measured:
[1] = biological target: T1, recombinant human GM-CSF protein (human, UniProt P04141 18-144); assay: ELISA
T1 sequence (P04141 18-144): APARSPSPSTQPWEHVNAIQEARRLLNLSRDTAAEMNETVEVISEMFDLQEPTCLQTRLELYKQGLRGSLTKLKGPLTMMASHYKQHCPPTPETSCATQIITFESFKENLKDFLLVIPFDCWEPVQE

[2] = biological target: T1, recombinant human GM-CSF protein; assay: ELISA; remark: listed apart in the source

Row | Binder | EC50 [1] [nM] | EC50 [2] [nM]
1 | B1 | 0.0585 | –
2 | B2 | 0.0623 | –
3 | B3 | 0.0585 | –
4 | B4 | – | 0.0348
5 | B5 | 0.11 | –
6 | B6 | – | 0.0977
7 | B7 | 0.171 | –
8 | B8 | 0.0993 | –
9 | B9 | – | 0.101
10 | B10 | 0.0196 | –
11 | B11 | – | 0.0384
12 | B12 | – | 0.0736
13 | B13 | 0.0852 | –
14 | B14 | – | 0.127
15 | B15 | 0.102 | –
16 | B16 | 0.226 | –

Row | Binder | EC50 [1] [nM] | EC50 [2] [nM]
17 | B17 | 0.0484 | –
18 | B18 | 0.0787 | –
19 | B19 | – | 0.0624
20 | B20 | 0.164 | –
21 | B21 | – | 0.136
22 | B22 | 0.151 | –
23 | B23 | 0.0871 | –
24 | B24 | 0.158 | –
25 | B25 | 0.0516 | –
26 | B26 | 0.0858 | –
27 | B27 | – | 0.0268
28 | B28 | 0.059 | –
29 | B29 | 0.0508 | –
30 | B30 | 0.0887 | –
31 | B31 | 0.116 | –
